Measured values from paper PMC10316083, “Thermotoga maritima oriC involves a DNA unwinding element with distinct modules and a DnaA-oligomerizing region with a novel directional binding mode” (The Journal of Biological Chemistry, 2023).

Target: the molecule itself
Assay: native gel or EMSA; ATP-bound tmaDnaA on a 30 bp DNA (300 nM) with the oppositely oriented tmaDnaA boxes 2 and 3; complexes with one (C1) or two (C2) tmaDnaA molecules; 8% polyacrylamide gel, GelStar staining; self-interaction read from the preference for C2 on DNA

B1: Thermotoga maritima DnaA initiator (tmaDnaA), wildtype (natural protein, UniProt P46798 1-440, looked up)
chain: MKERILQEIKTRVNRKSWELWFSSFDVKSIEGNKVVFSVGNLFIKEWLEKKYYSVLSKAVKVVLGNDATFEITYEAFEPHSSYSEPLVKKRAVLLTPLNPDYTFENFVVGPGNSFAYHAALEVAKHPGRYNPLFIYGGVGLGKTHLLQSIGNYVVQNEPDLRVMYITSEKFLNDLVDSMKEGKLNEFREKYRKKVDILLIDDVQFLIGKTGVQTELFHTFNELHDSGKQIVICSDREPQKLSEFQDRLVSRFQMGLVAKLEPPDEETRKSIARKMLEIEHGELPEEVLNFVAENVDDNLRRLRGAIIKLLVYKETTGKEVDLKEAILLLKDFIKPNRVKAMDPIDELIEIVAKVTGVPREEILSNSRNVKALTARRIGMYVAKNYLKSSLRTIAEKFNRSHPVVVDSVKKVKDSLLKGNKQLKALIDEVIGEISRRALSG
notes: DnaA chromosomal replication initiator protein of Thermotoga maritima (tmaDnaA); also called WT tmaDnaA; ATP-tmaDnaA; source: purified as described previously (40); plasmid pTHMA-1
- binding result: binds
